Among the data in patent US20240301429A1 are Kd values, retold here.

For orientation: Kd means a measure of binding affinity in units of concentration. Read a high Kd as lower affinity.

Numbering of substitutions follows the chain as printed.

B1: NRP1 trap M (receptor)
chain: FRNDKCGDTIKIESPGYLTSPGYPHSYHPSEKCEWLIQAPDPYQRIMINFNPHFDLEDRDCKYDYVEVFDGENENGHFRGKFCGKIAPPPVVSSGPFLFIKFVSDYETHGAGFSIRYELFKRGPECSQNYTTPSGVIKSPGFPEKYPNSLECTYIVFAPKMSEIILEFESFDLEPDSNPPGGMFCRYDRLEIWDGFPDVGPHIGRYCGQKTPGRIRSSSGILSMVFYTDSAIAKEGFSANYSVLQSSVSEDFKCMEALGMESGEIHSDQITASSQYSTNWSAERSRLNYPENGWTPGEDSYREWIQVDLGLLRFVTAVGTQGAISKETKKKYYVKTYKIDVSSNGEDWITIKEGNKPVLFQGNTNPTDVVVAVFPKPLITRFVRIKPATWETGISMRFEVYGCRSGSKENLYFQG
B2: NRP1 trap Z (receptor)
chain: FRNDKCGDTIKIESPGYLTSPGYPHSYHPSEKCEWLIQAPDPYQRIMINFNPHFDLEDRDCKYDYVEVFDGENENGHFRGKFCGKIAPPPVVSSGPFLFIKFVSDYETHGAGFSIRYELFKRGPECSQNYTTPSGVIKSPGFPEKYPNSLECTYIVFAPKMSEIILEFESFDLEPDSNPPGGMFCRYDRLEIWDGFPDVGPHIGRYCGQKTPGRIRSSSGILSMVFYTDSAIAKEGFSANYSVLQSSVSEDFKCMEALGMESGEIHSDQITASSQYSTNWSAERSRLNYPENGWTPGKKSYREWIQVDLGLLRFVTAVGTQGAISKETKKKYYVKTYKIDVSSNGEDWITIKEGNKPVLFQGNTNPTDVVVAVFPKPLITRFVRIKPATWETGISMRFEVYGCKITDYPCSGMLGMVSGLISDSQITSSNQGDRNWMPENIRLVTSRSGWALPPAPHSYINEWLQIDLGEEKIVRGIIIQGGKHRENKVFMRKFKIGYSNNGSDWKMIMDDSKRKAKSFEGNNNYDTPELRTFPALSTRFIRIYPERATHGGLGLRMELLGCEVEAPTAGPTTPNGNLVDECDDDQANCHSGTGDDFQLTGGTTVLATEKPTVIDSTIQSEFPTYGFNCEFGWGSHKTFCHWEHDNHVQLKWSVLTSKTGPIQDHTGDGNFIYSQADENQKGKVARLVSPVVYSQNSAHCMTFWYHMSGSHVGTLRVKLRYQKPEEYDQLVWMAIGHQGDHWKEGRVLLHKSLKLYQVIFEGEIGKGNLGGIAVDDISINNHISQEDCAKPADLDKKNPEIKIDETGSTPGYEGEGEGDKNISRKPGNVLKTLDPRSGSKENLYFQG
B3: NRP1 trap AB (receptor)
chain: B2 chain with K298E, K299D, S325A, E327K

AP-VEGF165 (human), sequence (P15692 other isoform, or with tags, fused parts or gaps): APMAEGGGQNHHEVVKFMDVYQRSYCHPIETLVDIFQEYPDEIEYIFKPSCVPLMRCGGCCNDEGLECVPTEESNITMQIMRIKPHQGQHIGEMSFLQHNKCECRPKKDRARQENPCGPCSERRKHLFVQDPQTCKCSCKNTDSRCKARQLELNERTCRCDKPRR

This assay concerns the target AP-VEGF165 (human) (UniProt P15692). Description: saturation binding, trap coated on plate, AP-VEGF165 titrated, AP chemiluminescence.
As to B1, the Kd was 20.1 nM.

In the case of B2, the equilibrium dissociation constant (Kd) worked out at 67 nM. This Kd is about 3.3-fold higher than that of the molecule before. Under B3 stands 29.5 nM.
